Results as given in article PMC3749136 (PLoS ONE, 2013).

Biological target: T1, JAK1 JH1 domain (UniProt P23458 875-1153)
T1 construct: JAK1, JH1 (kinase) domain; also called JAK1 kinase (JH1) domain; active JAK1 JH1 domain
Assay: SPR; SOCS5 175-244 immobilised by amine coupling on a CM5 chip; JAK JH1 domains (62.5 nM to 2 µM) injected; 10 mM HEPES pH 8.0, 200 mM NaCl, 3.0 mM EDTA, 0.05% Tween20; steady-state fit, apparent KD; BIAcore3000
Conditions: both partners purified

T1 sequence (P23458 875-1153): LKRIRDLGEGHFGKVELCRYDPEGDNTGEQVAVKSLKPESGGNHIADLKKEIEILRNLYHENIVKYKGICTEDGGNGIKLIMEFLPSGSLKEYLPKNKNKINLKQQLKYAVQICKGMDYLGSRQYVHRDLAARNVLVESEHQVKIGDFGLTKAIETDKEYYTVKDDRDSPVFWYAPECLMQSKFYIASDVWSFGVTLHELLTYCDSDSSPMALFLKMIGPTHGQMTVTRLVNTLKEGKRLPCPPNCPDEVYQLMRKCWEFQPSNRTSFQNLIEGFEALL

Kd: 500 nM
B1: SOCS5 175–244 fragment (domain or fragment, mouse, UniProt O54928 175-244, looked up)
chain: RSLRQRLQDTVGLCFPMRTYSKQSKPLFSNKRKIHLSELMLEKCPFPAGSDLAQKWHLIKQHTAPVSPHS
notes: SOCS5, mouse, residues 175-244 (region conserved in SOCS4); Mass by LC-MS 8103 Da; also called JIR; source: E. coli BL21 (DE3), GST fusion purified on glutathione-Sepharose 4B, cleaved with TEV, RP-HPLC; not shown: GST, N-terminal, cleaved
